Holding throughout (experiment): SEC; analytical gel filtration of affinity-purified 6xHis-tagged VP3s, Superdex-200 5/150 calibrated with catalase, serum albumin, ovoalbumine and chymotrypsinogen A; 20 mM Tris-HCl pH 7.5, 150 mM NaCl, 4°C, 0.5 ml/min
A general note: Size exclusion chromatography separates by hydrodynamic size, large species first.

Data set [1] addresses 6xHis-tagged IBDV VP3 Patch1 mutant (K99D, R102D, K105D, K106D) (Infectious bursal disease virus (IBDV)).
Data set [2] has as its target 6xHis-tagged IBDV VP3 Patch2 mutant (R159D, R168D, H198D, R200D) (Infectious bursal disease virus (IBDV)).
Data set [3] deals with the molecule itself.

The values below come from publication PMC3458112, “The VP3 Factor from Viruses of Birnaviridae Family Suppresses RNA Silencing by Binding Both Long and Small RNA Duplexes” (PLoS ONE, 2012).

With “6xHis-tagged IBDV VP3 Patch1 mutant (K99D, R102D, K105D, K106D) (natural protein)”, the stoichiometry N (usually a count of units in the complex or per binding partner) in data set [1] amounted to 2. As for “6xHis-tagged IBDV VP3 Patch2 mutant (R159D, R168D, H198D, R200D) (natural protein)”, the stoichiometry N in data set [2] was found to be 2.

B1: 6xHis-tagged full-length IBDV VP3 (wild type) (natural protein)
chain: ASEFKETPELESAVRAMEAAANVDPLFQSALSVFMWLEENGIVTDMANFALSDPNAHRMRNFLANAPQAGSKSQRAKYGTAGYGVEARGPTPEEAQREKDTRISKKMETMGIYFATPEWVALNGHRGPSPGQVKYWQNKREIPDPNEDYLDYVHAEKSRLASEEQILRAATSIYGAPGQAEPPQAFIDEVAKVYEINHGRGPNQEQMKDLLLTAMEMKHRNPRRALPKPKPKPNAPTQRPPGRLGRWIRTVSDEDLE
notes: VP3 of Infectious bursal disease virus (IBDV), the cut product of the viral polyprotein (pVP2-VP4-VP3); numbers count on: the VP3 polypeptide itself (C-terminal region printed as 222-258), not the polyprotein; also called VP3 WT; wild type IBDV VP3
Consider B1, for which the “stoichiometry N” value in data set [3] is 2.
